How the values were obtained:
[1] = target: recombinant hTF (human, UniProt P13726 33-251); assay: cell-based or functional assay
[2] = target: T1, human tissue factor (hTF), purified, construct not stated (human, UniProt P13726 33-251, limits assumed); assay: SPR, Biacore 2000, antibody immobilized on CM5 chip, purified hTF in flow
T1 construct: The SPR and the chimeric-antibody ELISA say only 'purified hTF' / 'hTF'; also called purified hTF; human TF
Method: The anti-hTF monoclonal antibodies (No. 1849 and No. 1859) were each immobilized on the surface of a Biacore CM5 chip. The CM5 chip, which had each antibody immobilized thereon, was set in a SPR device, and an antigen-containing buffer containing purified hTF was allowed to flow through its flow path. The dissociation constant between each of the antibodies and hTF was determined by this measurement system. It should be noted that the measurement conditions were as follows.

B1: anti-hTF monoclonal antibody (No. 1849) (antibody, IgG2b, V domains shown)
VH: EVQLVESGGGLVQSGRSLKLSCAASGFTFSDYNMAWIRQAPKKGLEWVAAIIYDGTRTYYRDSVRGRFTISRDNAKSTLYLQVDSLRSEDTATYYCATGDSYTNFAYWGQGTLVTVSS
VL: EIVLTQSPTTMAASPGEKVTLTCRASSSLSYMHWYQQRSGTSPKLWIYETSKLASGVPNRFSGSGSGTSFSLTIDSMETEDAATYYCQQGNSYPRTFGGGTKLELK
notes: Rat hybridoma IgG purified on Protein G; constant regions are not; also called rat anti-hTF monoclonal antibody (No. 1849)
- Prolonged coagulation time ratio (prothrombin time ratio, PBS control = 1) [1]: 5.54 ratio relative to PBS
- Kd [2]: 0.0914 nM

B2: anti-hTF monoclonal antibody (No. 1859) (antibody, IgG2a, V domains shown)
VH: EVMLVESGPGLVQPSQTLSLICTVSGFSLTDYSVHWVRQPPGKGLEWVGVMWSGGTTTFNSGLKSRLSISRDTSKSQVFLKMYSLRTEDTAVYYCTRERAGSPLNWFAYWGQGTLVTVSS
VL: DIVMTQSPASLSASLEEIVTITCQASQDIGNYLSWYQQKPGKSPHLLIHSSTSLADGVPSRFSGSRSGTQYSLKINRLQVEDTGVYYCLQHYSGSRTFGGGTNLELK
notes: Rat hybridoma IgG purified on Protein G; constant regions are not
- Prolonged coagulation time ratio (prothrombin time ratio, PBS control = 1) [1]: 1.22 ratio relative to PBS
- Kd [2]: 0.189 nM

Source: patent US20160333113A1 (NATIONAL CANCER CENTER, published 2016)
